Measurements from the supplement of paper PMC6757056.
± gives the standard deviation of the averaged measurements.

B1: library; a variant is named by its letters at N, in order (parent)
chain: GCUGUCACCGAGAAACUGUGAAGUAUAUCUUAAACCUGGGCACUUAAAAGAUAUAUGGAGUUAGUAGUGCAACCUGCUCGGUCUGAUGAGUCCNNNNNNGGACGAAACAGC

Assays:
cyclic di-GMP [1] = variants of: B1; experiment: normalized RNA/DNA level without ligand (relative to sTRSVctl = 100) (log10 (% of sTRSVctl)); HEK293T; ligand: cyclic di-GMP (c-di-GMP-II aptamer); higher = less ribozyme self-cleavage, higher mRNA level; details: reporter: mCherry (pCS4076), ligand present: no
Method in brief: (§1)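 HEK293T cells were transfected with library plasmids carrying ribozyme switches linked to an mCherry reporter, or an eGFP reporter in some ligand experiments, at 4 µg per well of a 6-well plate, with any ligand added 1 h beforehand. After 72 h, total RNA was extracted with EDTA, reverse-transcribed, amplified, barcoded and sequenced. RNA level was defined as RNA reads over DNA reads, normalized to a spiked-in non-cleaving sequence or to the top-ranked sequences. That value was multiplied by 100 and converted to log10, the top set was 25 sequences, and only sequences with ≥100 DNA reads were retained.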

cyclic di-GMP [2] = variants of: B1; experiment: normalized RNA/DNA level with ligand (relative to sTRSVctl = 100) (log10 (% of sTRSVctl)); HEK293T; ligand: cyclic di-GMP (c-di-GMP-II aptamer); ligand concentration (+) RNA-Seq: 1 mM; higher = less ribozyme self-cleavage, higher mRNA level; details: reporter: mCherry (pCS4076), ligand present: yes
Method in brief: as §1

Variant | normalized RNA/DNA level without ligand (log10) (cyclic di-GMP [1]) | normalized RNA/DNA level with ligand (log10) (cyclic di-GMP [2])
GCUGUCACCGAGAAACUGUGAAGUAUAUCUUAAACCUGGGCACUUAAAAGAUAUAUGGAGUUAGUAGUGCAACCUGCUCGGUCUGAUGAGUCCUGCGAAGGACGAAACAGC [UGCGAA] | 1.69 ± 0.054 | 1.784 ± 0.013
GCUGUCACCGAGAAACUGUGAAGUAUAUCUUAAACCUGGGCACUUAAAAGAUAUAUGGAGUUAGUAGUGCAACCUGCUCGGUCUGAUGAGUCCUGCGACGGACGAAACAGC [UGCGAC] | 1.685 ± 0.016 | 1.82 ± 0.08
GCUGUCACCGAGAAACUGUGAAGUAUAUCUUAAACCUGGGCACUUAAAAGAUAUAUGGAGUUAGUAGUGCAACCUGCUCGGUCUGAUGAGUCCCGCCGUGGACGAAACAGC [CGCCGU] | 1.77 ± 0.049 | 1.87 ± 0.063
GCUGUCACCGAGAAACUGUGAAGUAUAUCUUAAACCUGGGCACUUAAAAGAUAUAUGGAGUUAGUAGUGCAACCUGCUCGGUCUGAUGAGUCCCGCCGGGGACGAAACAGC [CGCCGG] | 1.711 ± 0.011 | 1.85 ± 0.11
GCUGUCACCGAGAAACUGUGAAGUAUAUCUUAAACCUGGGCACUUAAAAGAUAUAUGGAGUUAGUAGUGCAACCUGCUCGGUCUGAUGAGUCCAGCCUGGGACGAAACAGC [AGCCUG] | 1.6624 ± 0.00017 | 1.81 ± 0.15
GCUGUCACCGAGAAACUGUGAAGUAUAUCUUAAACCUGGGCACUUAAAAGAUAUAUGGAGUUAGUAGUGCAACCUGCUCGGUCUGAUGAGUCCAGCCUCGGACGAAACAGC [AGCCUC] | 1.77 ± 0.073 | 1.87 ± 0.13
GCUGUCACCGAGAAACUGUGAAGUAUAUCUUAAACCUGGGCACUUAAAAGAUAUAUGGAGUUAGUAGUGCAACCUGCUCGGUCUGAUGAGUCCGGCCUUGGACGAAACAGC [GGCCUU] | 1.791 ± 0.013 | 1.9 ± 0.059
GCUGUCACCGAGAAACUGUGAAGUAUAUCUUAAACCUGGGCACUUAAAAGAUAUAUGGAGUUAGUAGUGCAACCUGCUCGGUCUGAUGAGUCCGGCCUAGGACGAAACAGC [GGCCUA] | 1.61 ± 0.12 | 1.83 ± 0.13
GCUGUCACCGAGAAACUGUGAAGUAUAUCUUAAACCUGGGCACUUAAAAGAUAUAUGGAGUUAGUAGUGCAACCUGCUCGGUCUGAUGAGUCCGGCCUCGGACGAAACAGC [GGCCUC] | 1.742 ± 0.015 | 1.83 ± 0.11
GCUGUCACCGAGAAACUGUGAAGUAUAUCUUAAACCUGGGCACUUAAAAGAUAUAUGGAGUUAGUAGUGCAACCUGCUCGGUCUGAUGAGUCCGGCCUGGGACGAAACAGC [GGCCUG] | 1.82 ± 0.026 | 1.87 ± 0.19
GCUGUCACCGAGAAACUGUGAAGUAUAUCUUAAACCUGGGCACUUAAAAGAUAUAUGGAGUUAGUAGUGCAACCUGCUCGGUCUGAUGAGUCCAGCGACGGACGAAACAGC [AGCGAC] | 1.65 ± 0.052 | 1.81 ± 0.077
GCUGUCACCGAGAAACUGUGAAGUAUAUCUUAAACCUGGGCACUUAAAAGAUAUAUGGAGUUAGUAGUGCAACCUGCUCGGUCUGAUGAGUCCGGCGAAGGACGAAACAGC [GGCGAA] | 1.558 ± 0.0061 | 1.77 ± 0.2
GCUGUCACCGAGAAACUGUGAAGUAUAUCUUAAACCUGGGCACUUAAAAGAUAUAUGGAGUUAGUAGUGCAACCUGCUCGGUCUGAUGAGUCCGGCGACGGACGAAACAGC [GGCGAC] | 1.76 ± 0.093 | 1.88 ± 0.16
GCUGUCACCGAGAAACUGUGAAGUAUAUCUUAAACCUGGGCACUUAAAAGAUAUAUGGAGUUAGUAGUGCAACCUGCUCGGUCUGAUGAGUCCCGCCUGGGACGAAACAGC [CGCCUG] | 1.74 ± 0.036 | 1.82 ± 0.1
GCUGUCACCGAGAAACUGUGAAGUAUAUCUUAAACCUGGGCACUUAAAAGAUAUAUGGAGUUAGUAGUGCAACCUGCUCGGUCUGAUGAGUCCCGCGAAGGACGAAACAGC [CGCGAA] | 1.23 ± 0.12 | 1.44 ± 0.11
GCUGUCACCGAGAAACUGUGAAGUAUAUCUUAAACCUGGGCACUUAAAAGAUAUAUGGAGUUAGUAGUGCAACCUGCUCGGUCUGAUGAGUCCCGCGACGGACGAAACAGC [CGCGAC] | 1.62 ± 0.041 | 1.8 ± 0.046
GCUGUCACCGAGAAACUGUGAAGUAUAUCUUAAACCUGGGCACUUAAAAGAUAUAUGGAGUUAGUAGUGCAACCUGCUCGGUCUGAUGAGUCCUGCCUCGGACGAAACAGC [UGCCUC] | 1.77 ± 0.072 | 1.9 ± 0.15
GCUGUCACCGAGAAACUGUGAAGUAUAUCUUAAACCUGGGCACUUAAAAGAUAUAUGGAGUUAGUAGUGCAACCUGCUCGGUCUGAUGAGUCCUGCCUGGGACGAAACAGC [UGCCUG] | 1.78 ± 0.047 | 1.88 ± 0.14
GCUGUCACCGAGAAACUGUGAAGUAUAUCUUAAACCUGGGCACUUAAAAGAUAUAUGGAGUUAGUAGUGCAACCUGCUCGGUCUGAUGAGUCCUGCCUAGGACGAAACAGC [UGCCUA] | 1.728 ± 0.0086 | 1.86 ± 0.074
GCUGUCACCGAGAAACUGUGAAGUAUAUCUUAAACCUGGGCACUUAAAAGAUAUAUGGAGUUAGUAGUGCAACCUGCUCGGUCUGAUGAGUCCUGCCUUGGACGAAACAGC [UGCCUU] | 1.725 ± 0.0025 | 1.87 ± 0.082
GCUGUCACCGAGAAACUGUGAAGUAUAUCUUAAACCUGGGCACUUAAAAGAUAUAUGGAGUUAGUAGUGCAACCUGCUCGGUCUGAUGAGUCCUGCCGUGGACGAAACAGC [UGCCGU] | 1.66 ± 0.013 | 1.83 ± 0.12
GCUGUCACCGAGAAACUGUGAAGUAUAUCUUAAACCUGGGCACUUAAAAGAUAUAUGGAGUUAGUAGUGCAACCUGCUCGGUCUGAUGAGUCCUGCCGCGGACGAAACAGC [UGCCGC] | 1.774 ± 0.015 | 1.9 ± 0.049
GCUGUCACCGAGAAACUGUGAAGUAUAUCUUAAACCUGGGCACUUAAAAGAUAUAUGGAGUUAGUAGUGCAACCUGCUCGGUCUGAUGAGUCCUGCCGGGGACGAAACAGC [UGCCGG] | 1.75 ± 0.04 | 1.86 ± 0.039
GCUGUCACCGAGAAACUGUGAAGUAUAUCUUAAACCUGGGCACUUAAAAGAUAUAUGGAGUUAGUAGUGCAACCUGCUCGGUCUGAUGAGUCCAGCCGGGGACGAAACAGC [AGCCGG] | 1.765 ± 0.013 | 1.865 ± 0.018
GCUGUCACCGAGAAACUGUGAAGUAUAUCUUAAACCUGGGCACUUAAAAGAUAUAUGGAGUUAGUAGUGCAACCUGCUCGGUCUGAUGAGUCCAGCCGUGGACGAAACAGC [AGCCGU] | 1.58 ± 0.048 | 1.77 ± 0.064
GCUGUCACCGAGAAACUGUGAAGUAUAUCUUAAACCUGGGCACUUAAAAGAUAUAUGGAGUUAGUAGUGCAACCUGCUCGGUCUGAUGAGUCCAGCCGCGGACGAAACAGC [AGCCGC] | 1.75 ± 0.033 | 1.89 ± 0.13
